B1: Zinc finger protein 64 (Homo sapiens), Q9NTW7 (parent)
chain: MNASSEGESFAGSVQIPGGTTVLVELTPDIHICGICKQQFNNLDAFVAHKQSGCQLTGTSAAAPSTVQFVSEETVPATQTQTTTRTITSETQTITVSAPEFVFEHGYQTYLPTESNENQTATVISLPAKSRTKKPTTPPAQKRLNCCYPGCQFKTAYGMKDMERHLKIHTGDKPHKCEVCGKCFSRKDKLKTHMRCHTGVKPYKCKTCDYAAADSSSLNKHLRIHSDERPFKCQICPYASRNSSQLTVHLRSHTASELDDDVPKANCLSTESTDTPKAPVITLPSEAREQMATLGERTFNCCYPGCHFKTVHGMKDLDRHLRIHTGDKPHKCEFCDKCFSRKDNLTMHMRCHTSVKPHKCHLCDYAAVDSSSLKKHLRIHSDERPYKCQLCPYASRNSSQLTVHLRSHTGDTPFQCWLCSAKFKISSDLKRHMIVHSGEKPFKCEFCDVRCTMKANLKSHIRIKHTFKCLHCAFQGRDRADLLEHSRLHQADHPEKCPECSYSCSSAAALRVHSRVHCKDRPFKCDFCSFDTKRPSSLAKHVDKVHRDEAKTENRAPLGKEGLREGSSQHVAKIVTQRAFRCETCGASFVRDDSLRCHKKQHSDQSENKNSDLVTFPPESGASGQLSTLVSVGQLEAPLEPSQDL
partner: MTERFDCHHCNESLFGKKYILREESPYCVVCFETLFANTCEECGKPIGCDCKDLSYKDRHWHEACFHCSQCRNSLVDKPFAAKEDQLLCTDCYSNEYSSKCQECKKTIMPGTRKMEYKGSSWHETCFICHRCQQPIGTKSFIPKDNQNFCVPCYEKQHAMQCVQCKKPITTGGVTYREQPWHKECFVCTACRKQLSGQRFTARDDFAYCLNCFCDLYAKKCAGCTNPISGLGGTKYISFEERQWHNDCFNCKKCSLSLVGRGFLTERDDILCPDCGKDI
B2: Zinc finger protein 64 (Homo sapiens), Q9NTW7 (parent)
chain: B1 chain
partner: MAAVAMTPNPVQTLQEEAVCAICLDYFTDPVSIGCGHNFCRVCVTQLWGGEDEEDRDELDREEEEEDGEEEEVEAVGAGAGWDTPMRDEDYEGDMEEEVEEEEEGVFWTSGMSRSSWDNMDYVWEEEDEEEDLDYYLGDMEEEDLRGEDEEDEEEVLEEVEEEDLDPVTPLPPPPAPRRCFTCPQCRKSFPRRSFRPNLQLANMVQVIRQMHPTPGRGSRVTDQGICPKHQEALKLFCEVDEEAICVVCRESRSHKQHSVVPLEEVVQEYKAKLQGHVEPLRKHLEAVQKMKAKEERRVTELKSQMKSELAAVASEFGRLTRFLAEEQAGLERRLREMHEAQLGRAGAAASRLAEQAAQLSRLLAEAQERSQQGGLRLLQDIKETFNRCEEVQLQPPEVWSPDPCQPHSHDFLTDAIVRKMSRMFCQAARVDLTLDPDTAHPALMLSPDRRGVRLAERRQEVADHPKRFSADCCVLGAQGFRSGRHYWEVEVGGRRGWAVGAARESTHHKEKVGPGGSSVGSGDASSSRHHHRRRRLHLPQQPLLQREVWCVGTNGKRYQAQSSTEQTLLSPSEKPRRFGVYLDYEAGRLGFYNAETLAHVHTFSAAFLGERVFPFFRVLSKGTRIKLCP
B3: Leucine-zipper-like transcriptional regulator 1 (Homo sapiens), Q8N653 (parent)
chain: MAGPGSTGGQIGAAALAGGARSKVAPSVDFDHSCSDSVEYLTLNFGPFETVHRWRRLPPCDEFVGARRSKHTVVAYKDAIYVFGGDNGKTMLNDLLRFDVKDCSWCRAFTTGTPPAPRYHHSAVVYGSSMFVFGGYTGDIYSNSNLKNKNDLFEYKFATGQWTEWKIEGRLPVARSAHGATVYSDKLWIFAGYDGNARLNDMWTIGLQDRELTCWEEVAQSGEIPPSCCNFPVAVCRDKMFVFSGQSGAKITNNLFQFEFKDKTWTRIPTEHLLRGSPPPPQRRYGHTMVAFDRHLYVFGGAADNTLPNELHCYDVDFQTWEVVQPSSDSEVGGAEVPERACASEEVPTLTYEERVGFKKSRDVFGLDFGTTSAKQPTQPASELPSGRLFHAAAVISDAMYIFGGTVDNNIRSGEMYRFQFSCYPKCTLHEDYGRLWESRQFCDVEFVLGEKEECVQGHVAIVTARSRWLRRKITQARERLAQKLEQEAAPVPREAPGVAAGGARPPLLHVAIREAEARPFEVLMQFLYTDKIKYPRKGHVEDVLLIMDVYKLALSFQLCRLEQLCRQYIEASVDLQNVLVVCESAARLQLSQLKEHCLNFVVKESHFNQVIMMKEFERLSSPLIVEIVRRKQQPPPRTPLDQPVDIGTSLIQDMKAYLEGAGAEFCDITLLLDGHPRPAHKAILAARSSYFEAMFRSFMPEDGQVNISIGEMVPSRQAFESMLRYIYYGEVNMPPEDSLYLFAAPYYYGFYNNRLQAYCKQNLEMNVTVQNVLQILEAADKTQALDMKRHCLHIIVHQFTKVSKLPTLRSLSQQLLLDIIDSLASHISDKQCAELGADI
B4: DNA topoisomerase 3-beta-1 (Homo sapiens), O95985 (parent)
chain: MKTVLMVAEKPSLAQSIAKILSRGSLSSHKGLNGACSVHEYTGTFAGQPVRFKMTSVCGHVMTLDFLGKYNKWDKVDPAELFSQAPTEKKEANPKLNMVKFLQVEGRGCDYIVLWLDCDKEGENICFEVLDAVLPVMNKAHGGEKTVFRARFSSITDTDICNAMACLGEPDHNEALSVDARQELDLRIGCAFTRFQTKYFQGKYGDLDSSLISFGPCQTPTLGFCVERHDKIQSFKPETYWVLQAKVNTDKDRSLLLDWDRVRVFDREIAQMFLNMTKLEKEAQVEATSRKEKAKQRPLALNTVEMLRVASSSLGMGPQHAMQTAERLYTQGYISYPRTETTHYPENFDLKGSLRQQANHPYWADTVKRLLAEGINRPRKGHDAGDHPPITPMKSATEAELGGDAWRLYEYITRHFIATVSHDCKYLQSTISFRIGPELFTCSGKTVLSPGFTEVMPWQSVPLEESLPTCQRGDAFPVGEVKMLEKQTNPPDYLTEAELITLMEKHGIGTDASIPVHINNICQRNYVTVESGRRLKPTNLGIVLVHGYYKIDAELVLPTIRSAVEKQLNLIAQGKADYRQVLGHTLDVFKRKFHYFVDSIAGMDELMEVSFSPLAATGKPLSRCGKCHRFMKYIQAKPSRLHCSHCDETYTLPQNGTIKLYKELRCPLDDFELVLWSSGSRGKSYPLCPYCYNHPPFRDMKKGMGCNECTHPSCQHSLSMLGIGQCVECESGVLVLDPTSGPKWKVACNKCNVVAHCFENAHRVRVSADTCSVCEAALLDVDFNKAKSPLPGDETQHMGCVFCDPVFQELVELKHAASCHPMHRGGPGRRQGRGRGRARRPPGKPNPRRPKDKMSALAAYFV
B5: Cyclic AMP-dependent transcription factor ATF-4 (Homo sapiens), P18848 (parent)
chain: MTEMSFLSSEVLVGDLMSPFDQSGLGAEESLGLLDDYLEVAKHFKPHGFSSDKAKAGSSEWLAVDGLVSPSNNSKEDAFSGTDWMLEKMDLKEFDLDALLGIDDLETMPDDLLTTLDDTCDLFAPLVQETNKQPPQTVNPIGHLPESLTKPDQVAPFTFLQPLPLSPGVLSSTPDHSFSLELGSEVDITEGDRKPDYTAYVAMIPQCIKEEDTPSDNDSGICMSPESYLGSPQHSPSTRGSPNRSLPSPGVLCGSARPKPYDPPGEKMVAAKVKGEKLDKKLKKMEQNKTAATRYRQKKRAEQEALTGECKELEKKNEALKERADSLAKEIQYLKDLIEEVRKARGKKRVP
B6: Cyclic AMP-dependent transcription factor ATF-4 (Homo sapiens), P18848 (parent)
chain: B5 chain
partner: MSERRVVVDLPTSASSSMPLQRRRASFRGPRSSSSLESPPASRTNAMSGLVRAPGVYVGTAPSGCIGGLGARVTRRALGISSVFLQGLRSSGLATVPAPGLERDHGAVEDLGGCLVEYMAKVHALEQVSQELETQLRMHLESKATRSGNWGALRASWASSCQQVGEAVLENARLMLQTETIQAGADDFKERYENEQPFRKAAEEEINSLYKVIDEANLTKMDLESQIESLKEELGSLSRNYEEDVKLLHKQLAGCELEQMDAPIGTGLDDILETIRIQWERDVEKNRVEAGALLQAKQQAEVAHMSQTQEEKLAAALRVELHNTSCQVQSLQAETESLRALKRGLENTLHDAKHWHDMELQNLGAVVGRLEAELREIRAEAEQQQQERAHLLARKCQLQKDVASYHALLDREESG

Variants of: B1
Conditions: with fhl2_human FHL2, Q14192

Variant	effect of a mutation on the interaction
D227E	with no effect

Variants of: B2
Conditions: with tri41_human TRIM41, Q8WV44

Variant	effect of a mutation on the interaction
D227E	with no effect

Variants of: B3
Conditions: with gcp4_human TUBGCP4, Q9UGJ1
gcp4_human TUBGCP4, Q9UGJ1, sequence (Q9UGJ1 whole entry): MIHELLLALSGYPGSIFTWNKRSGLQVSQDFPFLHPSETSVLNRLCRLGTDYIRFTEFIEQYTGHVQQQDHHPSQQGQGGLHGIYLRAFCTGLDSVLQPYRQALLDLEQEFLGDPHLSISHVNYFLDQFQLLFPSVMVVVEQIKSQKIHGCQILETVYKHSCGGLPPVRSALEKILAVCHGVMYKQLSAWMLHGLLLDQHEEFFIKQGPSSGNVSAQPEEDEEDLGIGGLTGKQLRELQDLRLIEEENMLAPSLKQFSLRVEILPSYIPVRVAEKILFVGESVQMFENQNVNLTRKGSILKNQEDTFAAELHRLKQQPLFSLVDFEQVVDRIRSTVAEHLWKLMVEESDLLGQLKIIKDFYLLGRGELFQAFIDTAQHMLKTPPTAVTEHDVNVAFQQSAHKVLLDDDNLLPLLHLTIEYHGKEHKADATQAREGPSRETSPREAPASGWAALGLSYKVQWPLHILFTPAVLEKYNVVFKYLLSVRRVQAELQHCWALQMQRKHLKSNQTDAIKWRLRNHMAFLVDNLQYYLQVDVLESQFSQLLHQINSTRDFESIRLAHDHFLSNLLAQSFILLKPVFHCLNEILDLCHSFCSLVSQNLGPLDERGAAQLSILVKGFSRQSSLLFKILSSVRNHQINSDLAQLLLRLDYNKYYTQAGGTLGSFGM

Variant	effect of a mutation on the interaction
G663V	disrupting interaction strength

Variants of: B3
Conditions: with gcp4_human TUBGCP4, Q9UGJ1
Remark: another data set of the same source

Variant	effect of a mutation on the interaction
E721K	with no effect

Variants of: B4
Conditions: with spre2_human SPRED2, Q7Z698
spre2_human SPRED2, Q7Z698, sequence (Q7Z698 whole entry): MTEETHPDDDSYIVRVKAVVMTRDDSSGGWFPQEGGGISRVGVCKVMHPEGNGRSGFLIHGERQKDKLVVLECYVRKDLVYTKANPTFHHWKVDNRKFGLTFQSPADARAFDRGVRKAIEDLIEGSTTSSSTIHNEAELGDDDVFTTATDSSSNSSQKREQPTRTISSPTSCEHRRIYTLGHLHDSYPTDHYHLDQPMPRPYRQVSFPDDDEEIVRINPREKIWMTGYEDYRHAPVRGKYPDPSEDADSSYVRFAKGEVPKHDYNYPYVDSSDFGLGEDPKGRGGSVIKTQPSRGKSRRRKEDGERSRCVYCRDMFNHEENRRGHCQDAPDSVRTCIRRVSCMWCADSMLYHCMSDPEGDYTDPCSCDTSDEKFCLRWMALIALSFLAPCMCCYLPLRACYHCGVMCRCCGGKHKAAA

Variant	effect of a mutation on the interaction
C666R	disrupting interaction strength

Variants of: B5
Conditions: with cc106_human CCDC106, Q9BWC9
cc106_human CCDC106, Q9BWC9, sequence (Q9BWC9 whole entry): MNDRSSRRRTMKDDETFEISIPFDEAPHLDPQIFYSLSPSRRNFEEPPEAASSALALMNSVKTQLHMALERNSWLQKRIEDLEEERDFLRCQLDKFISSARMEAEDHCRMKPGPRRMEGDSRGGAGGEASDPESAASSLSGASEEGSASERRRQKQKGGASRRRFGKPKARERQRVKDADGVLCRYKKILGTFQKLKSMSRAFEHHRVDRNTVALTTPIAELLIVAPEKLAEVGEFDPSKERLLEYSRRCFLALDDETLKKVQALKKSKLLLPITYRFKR

Variant	effect of a mutation on the interaction
L180F	with no effect

Variants of: B5
Conditions: with ldoc1_human LDOC1, O95751
ldoc1_human LDOC1, O95751, sequence (O95751 whole entry): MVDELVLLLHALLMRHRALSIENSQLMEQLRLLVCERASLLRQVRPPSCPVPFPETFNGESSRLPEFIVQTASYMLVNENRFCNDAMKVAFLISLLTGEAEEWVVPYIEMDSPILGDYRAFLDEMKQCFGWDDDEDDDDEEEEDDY

Variant	effect of a mutation on the interaction
L180F	with no effect

Variants of: B5
Conditions: with gps2_human GPS2, Q13227
gps2_human GPS2, Q13227, sequence (Q13227 whole entry): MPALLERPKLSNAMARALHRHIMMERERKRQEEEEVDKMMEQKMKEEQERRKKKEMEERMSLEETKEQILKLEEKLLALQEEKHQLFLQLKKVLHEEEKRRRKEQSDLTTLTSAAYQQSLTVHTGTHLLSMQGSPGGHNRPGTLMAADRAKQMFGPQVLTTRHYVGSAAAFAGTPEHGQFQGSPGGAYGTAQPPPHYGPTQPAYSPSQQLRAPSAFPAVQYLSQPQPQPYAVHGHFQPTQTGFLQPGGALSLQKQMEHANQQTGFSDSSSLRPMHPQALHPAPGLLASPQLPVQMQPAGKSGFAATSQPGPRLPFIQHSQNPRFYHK

Variant	effect of a mutation on the interaction
L180F	with no effect

Variants of: B5
Conditions: with tthy_human TTR

Variant	effect of a mutation on the interaction
L180F	with no effect

Variants of: B5
Conditions: with fbw1a_human BTRC

Variant	effect of a mutation on the interaction
L180F	with no effect

Variants of: B6
Conditions: with bfsp2_human BFSP2, Q13515

Variant	effect of a mutation on the interaction
L180F	with no effect

Source: IntAct's records for PubMed 29892012
